Experimental data reported in patent publication US20170081400A1 (CEPHALON, published 2017).
Blank lines part the entries; values can stand above or below the molecule they belong to.

Assays:
[1] = biological target: membrane TL1A on human PBMCs (human) (UniProt O95150); assay: flow cytometry on human PBMCs, antibody staining against CD14 [left plot]
[2] = biological target: T1, human TL1A extracellular domain with N-terminal HIS and FLAG tag (human) (UniProt O95150); assay: SPR Run 6, purified Ab captured on Protein A, TL1A 5 ug/mL, timepoint 44
T1 sequence: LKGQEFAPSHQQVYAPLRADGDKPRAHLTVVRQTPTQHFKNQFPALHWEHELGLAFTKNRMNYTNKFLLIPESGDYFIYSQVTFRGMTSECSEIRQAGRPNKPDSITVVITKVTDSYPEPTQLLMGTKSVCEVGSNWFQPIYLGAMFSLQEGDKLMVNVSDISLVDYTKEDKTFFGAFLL

[3] = biological target: T1, human TL1A extracellular domain with N-terminal HIS and FLAG tag (human); assay: SPR Run 6, purified Ab captured on Protein A, TL1A 5 ug/mL, timepoint 170
[4] = biological target: T2, single-site biotinylated human TL1A (human, UniProt O95150 72-251, single-site biotinylated (site not stated)); assay: competition ELISA: antibody dilutions pre-incubated with biotinylated human TL1A (1 µg/ml), added to plate-coated DR3/Fc; bound TL1A detected with streptavidin-HRP; blocked partner DR3/Fc [top panel]
T2 construct: construct used for biotinylation not described
T2 sequence: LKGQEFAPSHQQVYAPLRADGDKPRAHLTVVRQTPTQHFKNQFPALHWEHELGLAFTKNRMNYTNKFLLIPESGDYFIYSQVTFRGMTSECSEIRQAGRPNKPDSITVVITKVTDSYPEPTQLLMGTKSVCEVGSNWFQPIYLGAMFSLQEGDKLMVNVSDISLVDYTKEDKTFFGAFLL
Protocol: (§1) 1.8. […] DR3/Fc Chimera (R&D Systems) or DcR3/Fc Chimera (R&D Systems) was coated onto a 96-well plate (Maxisorp, Nunc) at a concentration of 2 μg/ml.

[5] = biological target: T2, single-site biotinylated human TL1A; assay: competition ELISA: antibody dilutions pre-incubated with biotinylated human TL1A (1 µg/ml), added to plate-coated DcR3/Fc; bound TL1A detected with streptavidin-HRP; blocked partner DcR3/Fc [bottom panel]
Protocol: as §1

- number in the upper left quadrant (antibody-positive, CD14-negative cells) [1]: 0.51
- number in the upper right quadrant (antibody-positive, CD14-positive cells) [1]: 0.07
Molecule: Isotype control (antibody)

- IC50 (read off the curve) [5]: ~2 µg/mL
B5: 320-584 (antibody, human IgG1, name in Kabat numbering, V domains shown)
VH: QVQLVQSGAEVKKPGASVKVSCKASGYTFTSYDINWVRQAPGQGLEWMGWLNPNSGNTGYAQKFQGRVTMTADRSTSTAYMELSSLRSEDTAVYYCAREVPETAAFEYWGQGTLVTVSS
VL: QSVLTQPPSVSGAPGQRVTISCTSSSSDIGAGSGVHWYQQLPGTAPKLLIEGYYNRPSGVPDRFSGSKSGTSASLTITGLLPEDEGDYYCQSWDGTLSALFGGGTKLTVLG
notes: human IgG1, lambda

- IC50 (read off the curve) [5]: ~2 µg/mL
B6: 320-585 (antibody, human IgG1, name in Kabat numbering, V domains shown)
VH: QVQLVQSGAEVKKPGASVKVSCKASGYTFTSYDINWVRQAPGQGLEWMGWLNPNSGNTGYAQKFQGRVTMTADRSTSTAYMELSSLRSEDTAVYYCAREVPETAAFEYWGQGTLVTVSS
VL: QSVLTQPPSVSGAPGQRVTISCTSSSSDIGAGQGVHWYQQLPGTAPKLLIEGYYNRPSGVPDRFSGSKSGTSASLTITGLLPEDEGDYYCQSWDGTLSALFGGGTKLTVLG
notes: human IgG1, lambda

- IC50 (read off the curve) [5]: ~2 µg/mL
B7: 320-586 (antibody, human IgG1, name in Kabat numbering, V domains shown)
VH: QVQLVQSGAEVKKPGASVKVSCKASGYTFTSYDINWVRQAPGQGLEWMGWLNPNSGNTGYAQKFQGRVTMTADRSTSTAYMELSSLRSEDTAVYYCAREVPETAAFEYWGQGTLVTVSS
VL: QSVLTQPPSVSGAPGQRVTISCTSSSSDIGAGLGVLWYQQLPGTAPKLLIEGYYNRPSGVPDRFSGSKSGTSASLTITGLLPEDEGDYYCQSWDGTLSALFGGGTKLTVLG
notes: human IgG1, lambda

Second part, the molecule before the results:

B1: 320-457 (antibody, human IgG1, name in Kabat numbering, V domains shown)
VH: QVQLVQSGAEVKKPGASVKVSCKASGYTFTSYDDNWVRQAPGQGLEWMGWLNPNSGNTGYAQKFQGRVTMTADRSTSTAYMELSSLRSEDTAVYYCAREVPETAAFEYWGQGTLVTVSS
VL: QSVLTQPPSVSGAPGQRVTISCTSSSSDIGAGLGVHWYQQLPGTAPKLLIEGYYNRPSGVPDRFSGSKSGTSASLTITGLLPEDEGDYYCQSYDGTLSALFGGGTKLTVLG
- TL1A Binding Level (Early) [2]: 6 RU
- TL1A Binding Level (Late) [3]: 4 RU

B2: 320-331 (antibody, human IgG1, name in Kabat numbering, V domains shown)
VH: QVQLVQSGAEVKKPGASVKVSCKASGYTFTSYDINWVRQAPGQGLEWMGWLNPNSGNTGYAQKFQGRVTMTADRSTSTAYMELSSLRSEDTAVYYCAREVPETAAFEYWGQGTLVTVSS
VL: QSVLTQPPSVSGAPGQRVTISCTSSSSDIGAGLGVHWYQQLPGTAPKLLIEGYYNRPSGVPDRFSGSKSGTSASLTITGLLPEDEGDYYCQSWDGTLSALFGGGTKLTVLG
notes: human IgG1, lambda
- IC50 (read off the curve) [4]: ~0.08 µg/mL

B3: 320-547 (antibody, human IgG1, name in Kabat numbering, V domains shown)
VH: QVQLVQSGAEVKKPGASVKVSCKASGYTFTSYDINWVRQAPGQGLEWMGWLNPNSGYTGYAQKFQGRVTMTADRSTSTAYMELSSLRSEDTAVYYCAREVPETAAFEYWGQGTLVTVSS
VL: QSVLTQPPSVSGAPGQRVTISCTSSSSDIGAGLGVHWYQQLPGTAPKLLIEGYYNRPSGVPDRFSGSKSGTSASLTITGLLPEDEGDYYCQSYDGTLSALFGGGTKLTVLG
notes: human IgG1, lambda
- IC50 (read off the curve) [4]: ~0.07 µg/mL

B4: 320-583 (antibody, human IgG1, name in Kabat numbering, V domains shown)
VH: QVQLVQSGAEVKKPGASVKVSCKASGYTFTSYDINWVRQAPGQGLEWMGWLNPNSGNTGYAQKFQGRVTMTADRSTSTAYMELSSLRSEDTAVYYCAREVPETAAFEYWGQGTLVTVSS
VL: QSVLTQPPSVSGAPGQRVTISCTSSSSDIGAALGVHWYQQLPGTAPKLLIEGYYNRPSGVPDRFSGSKSGTSASLTITGLLPEDEGDYYCQSWDGTLSALFGGGTKLTVLG
notes: human IgG1, lambda
- IC50 (read off the curve) [5]: ~1 µg/mL
